Results published in publication PMC5059438.

Target: Ops*, an active form of opsin which is similar to metarhodopsin II (UniProt P02699)

Q: For “Ops*, an active form of opsin which is similar to metarhodopsin II (from UniProt P02699 1-348) (receptor)”, which molar mass of functionally reconstituted scramblase, from the fit of p(≥1 scramblase) versus PPR* (dithionite/NBD-PC scramblase assay on proteoliposomes) is on record?
A: The molar mass of functionally reconstituted scramblase, from the fit of p(≥1 scramblase) versus PPR* (dithionite/NBD-PC scramblase assay on proteoliposomes) was 90800 g/mol.
